This note sets out measurements from patent US20250283065A1, “TRUNCATED POLYPEPTIDES HAVING PROTEIN LIGASE ACTIVITY AND METHODS OF PRODUCTION THEREOF” (NANYANG TECHNOLOGICAL UNIVERSITY, priority 2022, published 2025).

One data set relates to OaAEP1b-C247A-Δ351. Briefly: Active site titration by FRET ligation assay with covalent inhibitor. The class given is biochemical, Oldenlandia affinis. The settings on record: enzyme 280 nM, 1 hour incubation. How it is done:
Active site titration: The procedure described in reference was followed. The enzyme preparation was diluted to a concentration of 280 nM using a buffer containing 20 mM sodium phosphate at pH 6.5, 5 mM 2-Mercaptoethanol. Solutions containing serial twofold dilution of inhibitor YVAD-cmk were prepared in a black microtiter plate (Greiner Bio-One) using buffer as diluent. The enzyme was subsequently added to the wells containing the inhibitor to a final volume of 50 μL. The plate was incubated for 1 hour at room temperature before adding FRET peptides (PIE {EDANS} YNAL (SEQ ID NO:18) and GIK {DABSYL} SIP (SEQ ID NO: 19)), which were mixed at a molar ratio of 1:3 giving a final enzyme: substrate molar ratio of 1:200. The EDANS fluorescence signal was measured with an excitation wavelength of 336 nm and an emission wavelength of 490 nm. Relative fluorescence units (RFU) of quenched EDANS signal were plotted against time. The value of the initial velocity (Vi) was determined from the slope of the RFU (t) curve. The measured value of Vi was subsequently normalized by dividing with the initial rate obtained in the absence of inhibitor (control V0). The calculated Vi/V0 ratio was plotted against inhibitor concentrations, generating an inhibition curve. […]

For data set [1], the target named is mixture of FRET peptides A: PIE{EDANS}YNAL and B: GIK{DABSYL}SIP at a molar ratio of 1:3.
Data set [2] has as its system peptides PIE {EDANS} YNAL and GIK {DABSYL} SIP. The data set can be described thus: FRET ligation kinetics assay. It is filed as biochemical. Conditions: 50 nM enzyme, peptides A:B molar ratio 1:3. How it is done: Kinetics assay: The kinetic properties of the peptide ligation of the constitutively active PAL were studied using a FRET assay. Two peptides synthesized by GenScript: PIE {EDANS} YNAL (SEQ ID NO:18) and GIK {DABSYL} SIP (SEQ ID NO:19) were mixed at a molar ratio of 1:3. Upon ligation, the peptide PIE {EDANS} YNGIK {DABSYL} SIP (SEQ ID NO: 20) is produced. 50 nM of PAL enzyme is mixed with various concentrations of the peptide mixture. The EDANS fluorescence signal was measured with an excitation wavelength of 336 nm and an emission wavelength of 490 nm. A reduction in EDANS fluorescence signal occurs upon ligation of the two peptides due to quenching by DABSYL. The variation in fluorescence signal for each substrate mixture concentration was measured after addition of the enzyme to initiate the reaction. The rate of decrease in fluorescence signal during the first 30 seconds after enzyme addition was plotted against the substrate concentration to obtain the Vmax, kcat and KM values for each enzyme.
Next, using a FRET ligation assay, the ligase activity of the truncated OaAEP1b-C247A-Δ351 was compared with its acid-activated zymogen counterpart. Briefly, 50 nM of either enzyme was added to a mixture of two peptides A: PIE (EDANS) YNAL (SEQ ID NO:18) and B: GIK (DABSYL) SIP (SEQ ID NO:19). These two peptides were mixed in a A:B molar ratio of 1:3. Upon ligation, the fluorescence signal emission of the EDANS moiety of A (λem=490 nm) becomes quenched by the DABSYL moiety of B. (FIG. 7A). This assay the ligation rate to be followed between both peptides in real-time, giving access to the kinetic parameters of the truncated enzyme.

In data set [3] the target is OaAEP1b-C247A-Δ351 with His-tag and TEV cleavage sequence (construct for recombinant expression) (Oldenlandia affinis). Briefly: cell-based or functional assay.

On to ac-YVAD-cmk [reference compound], for which the “minimal concentration of inhibitor necessary for a complete inhibition of the ligation activity” value with OaAEP1b-C247A-Δ351 is 150 nM.

B1: acid-activated OaAEP1b-C247A (protein)
chain: MVRYLAGAVLLLVVLSVAAAVSGARDGDYLHLPSEVSRFFRPQETNDDHGEDSVGTRWAVLIAGSKGYANYRHQAGVCHAYQILKRGGLKDENIVVFMYDDIAYNESNPRPGVIINSPHGSDVYAGVPKDYTGEEVNAKNFLAAILGNKSAITGGSGKVVDSGPNDHIFIYYTDHGAAGVIGMPSKPYLYADELNDALKKKHASGTYKSLVFYLEACESGSMFEGILPEDLNIYALTSTNTTESSWAYYCPAQENPPPPEYNVCLGDLFSVAWLEDSDVQNSWYETLNQQYHHVDKRISHASHATQYGNLKLGEEGLFVYMGSNPANDNYTSLDGNALTPSSIVVNQRDADLLHLWEKFRKAPEGSARKEEAQTQIFKAMSHRVHIDSSIKLIGKLLFGIEKCTEILNAVRPAGQPLVDDWACLRSLVGTFETHCGSLSEYGMRHTRTIANICNAGISEEQMAEAASQACASIP
As for B1, in data set [1], the Km (FRET ligation assay) was found to be 8.34 µM and the “Vmax (FRET ligation assay)” value amounted to 14.32 RFU/see.

B2: acid-activated OaAEP1b-C247A: full-length OaAEP1b-C247A proenzyme expressed in E. coli and activated at low pH according to reference [17] (protein, listed as Oldenlandia affinis)
chain: MVRYLAGAVLLLVVLSVAAAVSGARDGDYLHLPSEVSRFFRPQETNDDHGEDSVGTRWAVLIAGSKGYANYRHQAGVCHAYQILKRGGLKDENIVVFMYDDIAYNESNPRPGVIINSPHGSDVYAGVPKDYTGEEVNAKNFLAAILGNKSAITGGSGKVVDSGPNDHIFIYYTDHGAAGVIGMPSKPYLYADELNDALKKKHASGTYKSLVFYLEACESGSMFEGILPEDLNIYALTSTNTTESSWAYYCPAQENPPPPEYNVCLGDLFSVAWLEDSDVQNSWYETLNQQYHHVDKRISHASHATQYGNLKLGEEGLFVYMGSNPANDNYTSLDGNALTPSSIVVNQRDADLLHLWEKFRKAPEGSARKEEAQTQIFKAMSHRVHIDSSIKLIGKLLFGIEKCTEILNAVRPAGQPLVDDWACLRSLVGTFETHCGSLSEYGMRHTRTIANICNAGISEEQMAEAASQACASIP
modifications: acid-activated
Consider B2, for which, in data set [2], the Vmax is on record as 14.32 RFU/see.

B3: OaAEP1b-C247A-Δ351 with His-tag and TEV cleavage sequence (construct for recombinant expression) (protein)
chain: MHHHHHHSSGVDLGTENLYFQSVGTRWAVLIAGSKGYANYRHQAGVCHAYQILKRGGLKDENIVVFMYDDIAYNESNPRPGVIINSPHGSDVYAGVPKDYTGEEVNAKNFLAAILGNKSAITGGSGKVVDSGPNDHIFIYYTDHGAAGVIGMPSKPYLYADELNDALKKKHASGTYKSLVFYLEACESGSMFEGILPEDLNIYALTSTNTTESSWCYYCPAQENPPPPEYNVCLGDLFSVAWLEDSDVQNSWYETLNQQYHHVDKRISHASHATQYGNLKLGEEGLFVYMGSNPANDNYTSLDGNALTPSSIVVNQRDAD
Consider B3, for which, in data set [1], the “Km (FRET ligation assay)” value was found to be 8.16 µM and the “Vmax (FRET ligation assay)” value stood at 6.40 RFU/see.

In the case of YVAD (N-terminal acetyl; C-terminal chloromethylketone (cmk)) [Ac-YVAD-cmk], in data set [3], the fraction of the measured protein concentration that is active and amenable to complete inhibition (active site titration) was found to be 53%; the minimal concentration of inhibitor necessary for a complete inhibition of the ligation activity (active site titration, enzyme at 280 nM) came to 150 nM.
